Test results: patent publication US20230295293A1, “BINDING MOLECULES AGAINST FRa” (AstraZeneca AB, priority 2022, published 2023)
Changes are numbered by the printed parent chain.

B1: AB1370026 (hybridoma IgG) (antibody, V domains shown)
VH: EVQLVESGGGLVKPGGSLRLSCAASGFTFSSYAMSWVRQAPGKGLEWVSSISSGRSYIYYADSVKGRFTISRDNAKNSLYLKMNSLRDEDTAVYYCAREMQQLALDYWGQGTLVTVSS
VL: DIQMTQSPSSLSASVGDRVTITCRASQGISNFLAWFQQAPGKAPKSLIYAASSLQSGVPSKFSGSGSGTDFTLTISSLQPEDFATYYCQQYNSYPFTFGQGTKLEIK
B2: AB1370083 (hybridoma IgG) (antibody, V domains shown)
VH: EVQLVESGGGLVKPGGSLRLSCAASGFTFSSYNMNWVRQAPGKGLEWVSSISSGSSYIYYADSMKGRFTISRDNAKNSLFLQMNSLRAEDTAVYYCARGMTTLTFDYWGQGTLVTVSS
VL: B1 VL with N31T, A39K, G68E, N92I, F96L, Q100G, L104V
B3: AB1370095 (hybridoma IgG) (antibody, V domains shown)
VH: B2 VH with N33S, G54R, I58V, M64V, F80Y
VL: B1 VL with N31S, A39K, F96L, Q100G, L104V
B4: AB1370035 (hybridoma IgG) (antibody, V domains shown)
VH: QVQLQQSGPGLVKPSQTLSLTCAISGDSVSSNSAAWNWIRQSPSRGLEWLGRTYYRSNWYNDYTLSVKSRITVNPDTSKNQFSLQLNSVTPEDTAVYYCVRGVGRFDSWGQGTLVTVSS
VL: DIQMTQSPSTLSASVGDRVIITCRASQSISSWLAWYQQKPGKAPKLLIYKASSLESGVPSRFSGSGSGTEFTLTITSLQPDDFASYYCQEYKTYSIFTFGPGTKVDIK

biological target: Cyno FRα ECD-Avi-His (cynomolgus monkey); experiment: HTRF antigen binding assay; hybridoma supernatant at 25%, 1 nM biotinylated antigen
Sequence (chain, as listed by the source limits assumed): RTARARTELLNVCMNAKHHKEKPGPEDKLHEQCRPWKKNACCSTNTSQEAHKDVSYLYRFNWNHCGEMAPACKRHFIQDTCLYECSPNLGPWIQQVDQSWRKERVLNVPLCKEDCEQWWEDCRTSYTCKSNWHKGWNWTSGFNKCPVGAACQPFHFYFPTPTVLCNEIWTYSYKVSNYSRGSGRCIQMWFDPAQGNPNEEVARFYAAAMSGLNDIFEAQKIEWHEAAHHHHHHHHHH

Row | % Delta F | Binder
1 | 214 % Delta F | B1
2 | 85.2 % Delta F | B2
3 | 85.3 % Delta F | B3
4 | 141 % Delta F | B4

biological target: Human FRα ECD-Avi-His (human); experiment: as above
Sequence (chain, as listed by the source limits assumed): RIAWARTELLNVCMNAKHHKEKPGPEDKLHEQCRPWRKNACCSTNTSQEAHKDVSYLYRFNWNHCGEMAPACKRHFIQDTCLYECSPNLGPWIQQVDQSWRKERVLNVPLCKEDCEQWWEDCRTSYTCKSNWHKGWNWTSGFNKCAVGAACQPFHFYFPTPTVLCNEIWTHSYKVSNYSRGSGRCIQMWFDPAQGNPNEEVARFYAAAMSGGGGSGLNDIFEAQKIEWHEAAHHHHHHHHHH

Row | % Delta F | Binder
5 | 271 % Delta F | B1
6 | 140 % Delta F | B2
7 | 126 % Delta F | B3
8 | 225 % Delta F | B4
